The target in this test is T1, human VEGF-A (human, UniProt P15692-4 27-191).
T1 construct: ELISA methods name 'full-length VEGF165-His protein (R&D Systems)'; Biacore methods name rhVEGF (R&D Systems Cat. No. 293-VE); also called VEGF165; VEGF165-His
Description: ELISA and Biacore (SPR), incl. simultaneous binding (bridging ELISA, sandwich SPR). On the technique in general: An ELISA detects its analyte on a solid surface through an enzyme-linked reagent.

Here are results for 1 molecule from patent US20150044214A1 (Hoffmann-La Roche, published 2015).

T1 sequence (P15692 other isoform, or with tags, fused parts or gaps limits assumed): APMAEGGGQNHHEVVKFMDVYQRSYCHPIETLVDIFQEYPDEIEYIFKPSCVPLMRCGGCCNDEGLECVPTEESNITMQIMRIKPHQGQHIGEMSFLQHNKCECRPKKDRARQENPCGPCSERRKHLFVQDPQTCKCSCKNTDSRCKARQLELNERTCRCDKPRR

B1: bispecific, tetravalent antigen binding protein recognizing Ang-2 and VEGF-A (bispecific antibody, human IgG1, kappa)
heavy 1: not shown
light 1: QPGLTQPPSVSVAPGQTARITCGGNNIGSKSVHWYQQKPGQAPVLVVYDDSDRPSGIPERFSGSNSGNTATLTISRVEAGDEADYYCQVWDSSSDHYVFGTGTKVTVLRTVAAPSVFIFPPSDEQLKSGTASVVCLLNNFYPREAKVQWKVDNALQSGNSQESVTEQDSKDSTYSLSSTLTLSKADYEKHKVYACEVTHQGLSSPVTKSFNRGEC
heavy 2: not shown
light 2: DIQMTQSPSSLSASVGDRVTITCSASQDISNYLNWYQQKPGKAPKVLIYFTSSLHSGVPSRFSGSGSGTDFTLTISSLQPEDFATYYCQQYSTVPWTFGQGTKVEIKSSASTKGPSVFPLAPSSKSTSGGTAALGCLVKDYFPEPVTVSWNSGALTSGVHTFPAVLQSSGLYSLSSVVTVPSSSLGTQTYICNVNHKPSNTKVDKKVEPKSC
notes: Expressed transiently in HEK293F cells; also called bispecific tetravalent <VEGF-Ang-2> antibody; <Ang-2, VEGF> bispecific tetravalent antibody
With B1, the binding result was “binds”.
